# Where no end group is shown, it is not given here.
# Test system: not listed separately
# Test: Plasma stability
# Assay type: in vitro ADME
# Settings: 20 μg/mL in plasma, 37° C., 0-5 hours
# Experimental: To assess stability, the compound of interest is spiked into plasma at a concentration of 20 μg/mL. It is incubated at 37° C. for 0, 1, 2 3, 4, 5 hours in triplicate. At each time point, MeOH is added to a 96 well microtiter plate and then sample is added in a ratio of 1 part sample to 4 parts MeOH to quench the digestion reaction. Samples are mixed with multi-channel pipette or liquid handler. The plate is then centrifuged for 10 minutes and placed in an autosampler kept at 10° C. Samples are then injected into a mass spectrometer (API 3000, Applied Biosystems) equipped with an autosampler (Leap HTC Pal) and HPLC pumps (Shimadzu LC-10ADVP).
row,Molecule,plasma stability as compared to native GLP-1
1,HGEGTFTSDVTQQLEEEAVRLFIEWLKQGGPSSGAPPPS-NH2 [Cmpd 5099],increased plasma stability
2,CC[C@H](C)[C@H](NC(=O)[C@H](Cc1ccccc1)NC(=O)[C@H](CCC(=O)O)NC(=O)[C@H](CCCCN)NC(=O)[C@H](C)NC(=O)[C@H](C)NC(=O)[C@H](CCC(N)=O)NC(=O)CNC(=O)[C@H](CCC(=O)O)NC(=O)[C@H](CC(C)C)NC(=O)[C@H](Cc1ccc(O)cc1)NC(=O)[C@H](CO)NC(=O)[C@H](CO)NC(=O)[C@@H](NC(=O)[C@H](CC(=O)O)NC(=O)[C@H](CO)NC(=O)[C@@H](NC(=O)[C@H](Cc1ccccc1)NC(=O)[C@@H](NC(=O)CNC(=O)[C@H](CCC(=O)O)NC(=O)[C@H](C)NC(=O)[C@H](Cc1c[nH]cn1)NC(=O)COCCOCCN)[C@@H](C)O)[C@@H](C)O)C(C)C)C(=O)N[C@@H](C)C(=O)N[C@@H](Cc1c[nH]c2ccccc12)C(=O)N[C@@H](CC(C)C)C(=O)N[C@H](C(=O)N[C@@H](CCCCN)C(=O)NCC(=O)N[C@@H](CCCNC(=N)N)C(N)=O)C(C)C [Cmpd 4992],increased plasma stability
3,"CC[C@H](C)[C@H](NC(=O)[C@H](Cc1ccccc1)NC(=O)[C@H](CCC(=O)O)NC(=O)[C@H](CCCCN)NC(=O)[C@H](C)NC(=O)[C@H](C)NC(=O)[C@H](CCC(N)=O)NC(=O)CNC(=O)[C@H](CCC(=O)O)NC(=O)[C@H](CC(C)C)NC(=O)[C@H](Cc1ccc(O)cc1)NC(=O)[C@H](CO)NC(=O)[C@H](CO)NC(=O)[C@@H](NC(=O)[C@H](CC(=O)O)NC(=O)[C@H](CO)NC(=O)[C@@H](NC(=O)[C@H](Cc1ccccc1)NC(=O)[C@@H](NC(=O)CNC(=O)[C@H](CCC(=O)O)NC(=O)[C@H](C)NC(=O)[C@H](Cc1c[nH]cn1)NC(=O)COCCOCCNC(=O)COCCOCCNC(=O)[C@@H]1CCCN1C(=O)[C@H](C)NC(CCc1ccccc1)C(=O)O)[C@@H](C)O)[C@@H](C)O)C(C)C)C(=O)N[C@@H](C)C(=O)N[C@@H](Cc1c[nH]c2ccccc12)C(=O)N[C@@H](CC(C)C)C(=O)N[C@H](C(=O)N[C@@H](CCCCN)C(=O)NCC(=O)N[C@@H](CCCNC(=N)N)C(N)=O)C(C)C (stereo partly drawn) [Cmpd 4984, (R,S)-1-[N2-(1-carboxy-3-phenylpropyl)-L-ala]-L-pro-ado-ado-GLP-1-(7-36) amide]",increased plasma stability
4,"CC[C@H](C)[C@H](NC(=O)[C@H](Cc1ccccc1)NC(=O)[C@H](CCC(=O)O)NC(=O)[C@H](CCCCN)NC(=O)[C@H](C)NC(=O)[C@H](C)NC(=O)[C@H](CCC(N)=O)NC(=O)CNC(=O)[C@H](CCC(=O)O)NC(=O)[C@H](CC(C)C)NC(=O)[C@H](Cc1ccc(O)cc1)NC(=O)[C@H](CO)NC(=O)[C@H](CO)NC(=O)[C@@H](NC(=O)[C@H](CC(=O)O)NC(=O)[C@H](CO)NC(=O)[C@@H](NC(=O)[C@H](Cc1ccccc1)NC(=O)[C@@H](NC(=O)CNC(=O)[C@H](CCC(=O)O)NC(=O)[C@H](C)NC(=O)[C@H](Cc1c[nH]cn1)NC(=O)COCCOCCNC(=O)[C@@H]1CCCN1C(=O)[C@H](C)NC(CCc1ccccc1)C(=O)O)[C@@H](C)O)[C@@H](C)O)C(C)C)C(=O)N[C@@H](C)C(=O)N[C@@H](Cc1c[nH]c2ccccc12)C(=O)N[C@@H](CC(C)C)C(=O)N[C@H](C(=O)N[C@@H](CCCCN)C(=O)NCC(=O)N[C@@H](CCCNC(=N)N)C(N)=O)C(C)C (stereo partly drawn) [Cmpd 4983, (R,S)-1-[N2-(1-carboxy-3-phenylpropyl)-L-ala]-L-pro-ado-GLP-1-(7-36) amide]",increased plasma stability

# Same assay, conditions: second, narrower list of b152; 20 μg/mL in plasma, 37° C., 0-5 hours
row,Molecule,plasma stability as compared to native GLP-1
1,HGEGTFTSDVTQQLEEEAVRLFIEWLKQGGPSSGAPPPS-NH2 [Cmpd 5099],increased plasma stability
2,CC[C@H](C)[C@H](NC(=O)[C@H](Cc1ccccc1)NC(=O)[C@H](CCC(=O)O)NC(=O)[C@H](CCCCN)NC(=O)[C@H](C)NC(=O)[C@H](C)NC(=O)[C@H](CCC(N)=O)NC(=O)CNC(=O)[C@H](CCC(=O)O)NC(=O)[C@H](CC(C)C)NC(=O)[C@H](Cc1ccc(O)cc1)NC(=O)[C@H](CO)NC(=O)[C@H](CO)NC(=O)[C@@H](NC(=O)[C@H](CC(=O)O)NC(=O)[C@H](CO)NC(=O)[C@@H](NC(=O)[C@H](Cc1ccccc1)NC(=O)[C@@H](NC(=O)CNC(=O)[C@H](CCC(=O)O)NC(=O)[C@H](C)NC(=O)[C@H](Cc1c[nH]cn1)NC(=O)COCCOCCN)[C@@H](C)O)[C@@H](C)O)C(C)C)C(=O)N[C@@H](C)C(=O)N[C@@H](Cc1c[nH]c2ccccc12)C(=O)N[C@@H](CC(C)C)C(=O)N[C@H](C(=O)N[C@@H](CCCCN)C(=O)NCC(=O)N[C@@H](CCCNC(=N)N)C(N)=O)C(C)C [Cmpd 4992],increased plasma stability
3,"CC[C@H](C)[C@H](NC(=O)[C@H](Cc1ccccc1)NC(=O)[C@H](CCC(=O)O)NC(=O)[C@H](CCCCN)NC(=O)[C@H](C)NC(=O)[C@H](C)NC(=O)[C@H](CCC(N)=O)NC(=O)CNC(=O)[C@H](CCC(=O)O)NC(=O)[C@H](CC(C)C)NC(=O)[C@H](Cc1ccc(O)cc1)NC(=O)[C@H](CO)NC(=O)[C@H](CO)NC(=O)[C@@H](NC(=O)[C@H](CC(=O)O)NC(=O)[C@H](CO)NC(=O)[C@@H](NC(=O)[C@H](Cc1ccccc1)NC(=O)[C@@H](NC(=O)CNC(=O)[C@H](CCC(=O)O)NC(=O)[C@H](C)NC(=O)[C@H](Cc1c[nH]cn1)NC(=O)COCCOCCNC(=O)[C@@H]1CCCN1C(=O)[C@H](C)NC(CCc1ccccc1)C(=O)O)[C@@H](C)O)[C@@H](C)O)C(C)C)C(=O)N[C@@H](C)C(=O)N[C@@H](Cc1c[nH]c2ccccc12)C(=O)N[C@@H](CC(C)C)C(=O)N[C@H](C(=O)N[C@@H](CCCCN)C(=O)NCC(=O)N[C@@H](CCCNC(=N)N)C(N)=O)C(C)C (stereo partly drawn) [Cmpd 4983, (R,S)-1-[N2-(1-carboxy-3-phenylpropyl)-L-ala]-L-pro-ado-GLP-1-(7-36) amide]",increased plasma stability

# Test system: GLP/GIP/CT cyclase, RIN-m5F cells
# Test: GLP/GIP/CT Cyclase (RIN) assay
# Assay type: cell-based, rat
# Settings: cAMP, values without **
# Experimental: GLP/GIP/CT Cyclase (RIN) Assay
# Five μl of serially diluted peptides are transferred to the 384-well assay plate. Rat pancreas insulinoma cells (RIN-m5F) are detached from a tissue culture flask with Versene and washed once in buffer. Then RIN-m5F cells are resusupended in buffer at 2.5×10^6 cells/ml. Then 10 μl cells (2.5×10^4 cells) are added to all wells of the assay plate and cells are stimulated at room temperature in the dark for 30 minutes. The reaction is terminated with 10 μl of lysis buffer and incubated at room temperature for 4 hrs in the dark. cAMP content is measured using Perkin Elmer AlphaScreen™ cAMP assay kit and results are read on a Perkin Elmer Fusion fluorometer. The assay is completed in 384-well plates at 25 microliter volumes.
row,Molecule,EC50 [nM]
1,HGEGTFTSDVTQQLEEEAVRLFIEWLKQGGPSSGAPPPS-NH2 [Cmpd 5099],1.29
2,HGEGTFTSDLVKILEAEAVRKFIEFLKN-NH2 [Cmpd 5052],4.5
3,"GLP-1-(7-37)-GG-(S)-2,6-diamino-1-(thiazolidin-2-cyano-3-y1)hexan-1-one amide (HAEGTFTSDVSSYLEGQAAKEFIAWLVKGRGGG; C-terminal cyano DPP4 inhibitor moiety, amide) [Cmpd 4845]",0.4
4,HGEGTFTSDLSKQVQEEAVRLFVEFLKN-NH2 [Cmpd 5035],628
5,CC[C@H](C)[C@H](NC(=O)[C@@H]1CCCN1C(=O)[C@@H](NC(=O)CNC(=O)CNC(=O)CNC(=O)[C@H](CO)NC(=O)[C@@H]1CCCN1C(=O)[C@H](CCCNC(=N)N)NC(=O)CNC(=O)[C@H](CCCCN)NC(=O)[C@@H](NC(=O)[C@H](CC(C)C)NC(=O)[C@H](Cc1c[nH]c2ccccc12)NC(=O)[C@H](C)NC(=O)[C@@H](NC(=O)[C@H](Cc1ccccc1)NC(=O)[C@H](CCC(=O)O)NC(=O)[C@H](CCCCN)NC(=O)[C@H](C)NC(=O)[C@H](C)NC(=O)[C@H](CCC(N)=O)NC(=O)CNC(=O)[C@H](CCC(=O)O)NC(=O)[C@H](CC(C)C)NC(=O)[C@H](Cc1ccc(O)cc1)NC(=O)[C@H](CO)NC(=O)[C@H](CO)NC(=O)[C@@H](NC(=O)[C@H](CC(=O)O)NC(=O)[C@H](CO)NC(=O)[C@@H](NC(=O)[C@H](Cc1ccccc1)NC(=O)[C@@H](NC(=O)CNC(=O)[C@H](CCC(=O)O)NC(=O)[C@H](C)NC(=O)[C@@H](N)Cc1c[nH]cn1)[C@@H](C)O)[C@@H](C)O)C(C)C)[C@@H](C)CC)C(C)C)[C@@H](C)CC)C(N)=O [Cmpd 4888],0.17

# Target: T1, GLP-1 receptor, endogenous in RINm5f cells (rat (RIN-m5F are called rat pancreas …, UniProt P32301 22-463))
# T1 sequence (looked up): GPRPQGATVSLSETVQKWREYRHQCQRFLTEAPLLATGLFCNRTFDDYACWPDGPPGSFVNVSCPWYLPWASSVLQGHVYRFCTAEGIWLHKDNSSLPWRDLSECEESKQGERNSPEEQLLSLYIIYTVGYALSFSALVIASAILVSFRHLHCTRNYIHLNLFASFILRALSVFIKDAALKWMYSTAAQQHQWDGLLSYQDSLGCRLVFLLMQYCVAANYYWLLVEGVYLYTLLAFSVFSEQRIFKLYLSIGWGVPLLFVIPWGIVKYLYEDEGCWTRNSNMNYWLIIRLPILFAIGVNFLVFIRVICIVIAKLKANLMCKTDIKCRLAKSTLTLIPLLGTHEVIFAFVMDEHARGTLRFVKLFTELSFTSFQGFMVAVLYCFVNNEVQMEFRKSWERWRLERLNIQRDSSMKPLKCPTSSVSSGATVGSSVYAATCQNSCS
# Test: cell-based or functional assay
# Settings: not given
Molecule,"cAMP, CYCLASE GLP/GIP/CT (RIN) EC50 [nM]","cAMP, GLP-1 CYCLASE (6-23) EC50 [nM]"
HGEGTFTSDLSKQLEEKAAKEFIEWLIQGGPSKEIIS [Cmpd 5101],0.863,–
HGEGTFTSDLSKQLEEEAVRLFIEWLKNGKPGKGKIRYS [Cmpd 5295],–,0.089
HGEGTFTSDLSKQLEEEAVRLFIEWLKNGKPGGKKIRYS [Cmpd 5451],0.205,–
HGEGTFTSDLSKQVQEEAVRLFVEFLKN-NH2 [Cmpd 5035],628,–
HGEGTFTSDLVKILEAEAVRKFIEFLKNGGPSSGAPPPS-NH2 [Cmpd 5529],–,0.388
HGEGTFTSDLSKQLEEEAVRLFIEWLIKGKP [Cmpd 5227],–,0.629
HGEGTFTSDLSKQLEEEAVRLFIEWLKNGKPKKIRYA [Cmpd 5439],–,0.17
HGEGTFTSDLSKQLEEEAVRLFIEWLKNGKPKAIRYS [Cmpd 5442],–,0.1
HGEGTFTSDLSKQLEEEAVRLFIEWLKNGKPKKARYS [Cmpd 5441],–,0.128
HGEGTFTSDLSKQLEEEAVRLFIEWLKNGKPKKIAYS [Cmpd 5440],–,0.13
HGEGTFTSDLSKQLEEEAVRLFIEWLKNGKPAKIRYS [Cmpd 5443],–,0.08
HGEGTFTSDLSKQLEEEAVRLFIEWLKNGGPSKEIIA [Cmpd 5444],–,0.09
HGEGTFTSDLSKQLEEEAVRLFIEWLKNGGPSKEIAS [Cmpd 5445],–,0.09
HGEGTFTSDLSKQLEEEAVRLFIEWLKNGGPSKAIIS [Cmpd 5446],–,0.1
HGEGTFTSDVTEYLEEEAVRLFIEWLKQGGPSSGAPPPS-NH2 [Cmpd 5129],1.09,–
